{"source": "paper PMC5583970", "molecular_target": "His-FOR20 (UniProt Q96NB1)", "sequence (Q96NB1 whole entry)": "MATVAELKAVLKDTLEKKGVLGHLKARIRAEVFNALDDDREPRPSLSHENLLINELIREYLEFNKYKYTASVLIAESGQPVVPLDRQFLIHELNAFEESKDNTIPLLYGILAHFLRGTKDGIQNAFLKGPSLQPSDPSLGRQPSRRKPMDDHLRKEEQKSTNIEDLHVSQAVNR", "assay": "pull-down; purified His-FOR20 (1 μM) and tubulin dimers (1–8 μM) on ice for 1 h, Ni-NTP beads 30 min, supernatant and pellet on Coomassie gel, band intensities fitted to n identical independent sites; apparent Kd"}
{"substance": "free tubulin dimers (αβ-tubulin heterodimers) (from UniProt P02550 1-451; P02554 1-445) (complex)", "values": [{"measurement": "Kd", "result": 3.5, "unit": "µM"}, {"measurement": "stoichiometry N (tubulin dimers per FOR20)", "result": 6}]}
